{
  "source": "patent US20190032056",
  "about": "“STEM-LOOP COMPOSITIONS AND METHODS FOR INHIBITING FACTOR D” (Vitrisa Therapeutics, Inc., published 2019)",
  "key": {"[1]": {"molecular_target": "T1, complement Factor D (fD) in C1q-depleted human serum (Homo sapiens, UniProt P00746 SEQ:1-228)", "T1 sequence (P00746 26-253)": "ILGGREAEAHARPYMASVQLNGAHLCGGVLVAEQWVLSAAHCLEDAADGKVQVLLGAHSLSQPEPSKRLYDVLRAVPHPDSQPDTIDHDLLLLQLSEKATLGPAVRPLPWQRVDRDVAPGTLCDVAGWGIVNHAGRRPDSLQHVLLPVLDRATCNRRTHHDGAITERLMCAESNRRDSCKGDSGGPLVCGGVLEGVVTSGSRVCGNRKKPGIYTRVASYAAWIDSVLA", "test": "inhibition; hemolysis, sd 0.1", "details": "protein: extract; tags: endogenous fD, about 9.6 nM in 10% serum; hairpin", "procedure": "(§1) In V-bottom 96-well plates the following reagents were added to a final volume of 250 μL: appropriate volume of 1× Veronal buffer with 0.1% gelatin, 100 μL aptamer, 30 μL of C1q-depleted human serum and 20 μl RBCs. This mixture was incubated for 25 minutes at room temperature, then the reaction was stopped by the addition of 5 μL of 500 mM EDTA. The plate was centrifuged for 5 minutes at 500×g at room temperature, then 100 μL of supernatant was removed and the extent of RBC lysis was determined by measuring absorbance at 405 nm.\n(§2) The potency of the PEG-aptamers P01, P04, P06, P07 and P08 compared to their non-pegylated counterparts was determined in the alternative complement-dependent hemolysis assay as described in Example 2."}, "complement Factor D (fD) [2]": {"molecular_target": "T2, complement Factor D (fD) (Homo sapiens, UniProt P00746 SEQ:1-228)", "T2 sequence (P00746 26-253)": "as above", "test": "SPR", "details": "tags: amine-coupled to dextran chip for SPR; free in esterase assay; hairpin", "procedure": "(§3) The binding affinity of aptamers for fD was determined by surface plasmon resonance (SPR) on a Reichert4 SPR System, where either aptamer or fD was immobilized as ligand on a solid surface and the interactant analyte was flowed in solution over the immobilized ligand (Table 20)."}, "complement Factor D (fD) [3]": {"molecular_target": "T2, complement Factor D (fD)", "test": "TR-FRET, 25 C", "details": "tags: His-tagged recombinant, bead-immobilized via His capture beads (flow) or anti-His Eu (TR-FRET); hairpin", "procedure": "(§4) The binding affinity of aptamers for fD was determined in solution using a homogenous time-resolved fluorescence resonance energy transfer (TR-FRET) assay (Table 21). In brief, 2.5 nM recombinant human Factor D with a hexahistidine tag (SEQ ID NO:324) (His), 2.5 nM anti-His Europium, and varied concentrations of Dylight® 650-labeled aptamer was added to half-well black 96-well plates in TR-FRET buffer (50 mM MOPS, pH 7.4, 125 mM NaCl, 5 mM KCl, 0.1 mg/mL BSA, 50 μM CHAPS, 1 mM CaCl₂ and 1 mM MgCl₂). After 1 hour incubation at 25° C., binding activity was assessed using a BioTek® Cytation™ 5 plate reader. Affinity binding constants were calculated as the concentration at which 50% of aptamer is bound using a single site binding model, with values ranging from 0.66 nM to 2.5 nM (Table 21)."}, "[4]": {"molecular_target": "T1, complement Factor D (fD) in …", "test": "inhibition; hemolysis; Table 17 lists about 10 nM", "details": "protein: extract; tags: endogenous fD, about 9.6 nM in 10% serum; hairpin", "procedure": "as §1"}, "[5]": {"molecular_target": "T1, complement Factor D (fD) in …", "test": "inhibition; hemolysis, sd 0.6", "details": "protein: extract; tags: endogenous fD, about 9.6 nM in 10% serum; hairpin", "procedure": "as §1, §2"}, "[6]": {"molecular_target": "T1, complement Factor D (fD) in …", "test": "inhibition; hemolysis, sd 1.4", "details": "protein: extract; tags: endogenous fD, about 9.6 nM in 10% serum; hairpin", "procedure": "as §1, §2"}, "complement Factor D (fD) [7]": {"molecular_target": "T2, complement Factor D (fD)", "test": "SPR; fD immobilized", "details": "tags: amine-coupled to dextran chip for SPR; free in esterase assay; hairpin", "procedure": "as §3"}, "complement Factor D (fD) [8]": {"molecular_target": "T2, complement Factor D (fD)", "test": "TR-FRET, 50 mM MOPS pH 7.4, 125 mM NaCl, 1 mM Ca and Mg, 25 C", "details": "tags: His-tagged recombinant, bead-immobilized via His capture beads (flow) or anti-His Eu (TR-FRET); hairpin", "procedure": "as §4"}, "complement Factor D (fD) [9]": {"molecular_target": "T2, complement Factor D (fD)", "test": "flow; bead-based direct binding", "details": "tags: His-tagged recombinant, bead-immobilized via His capture beads (flow) or anti-His Eu (TR-FRET); hairpin"}, "[10]": {"molecular_target": "T1, complement Factor D (fD) in …", "test": "inhibition; hemolysis, sd 4.4", "details": "protein: extract; tags: endogenous fD, about 9.6 nM in 10% serum; hairpin", "procedure": "as §1, §2"}, "complement Factor D (fD) [11]": {"molecular_target": "T2, complement Factor D (fD)", "test": "flow; bead-based direct binding, 37 C", "details": "tags: His-tagged recombinant, bead-immobilized via His capture beads (flow) or anti-His Eu (TR-FRET); hairpin"}, "[12]": {"molecular_target": "T1, complement Factor D (fD) in …", "test": "inhibition; hemolysis, sd 1.5", "details": "protein: extract; tags: endogenous fD, about 9.6 nM in 10% serum; hairpin", "procedure": "as §1, §2"}, "[13]": {"molecular_target": "T1, complement Factor D (fD) in …", "test": "inhibition; hemolysis, sd 0.4", "details": "protein: extract; tags: endogenous fD, about 9.6 nM in 10% serum; hairpin", "procedure": "as §1, §2"}, "[14]": {"molecular_target": "T1, complement Factor D (fD) in …", "test": "inhibition; hemolysis, sd 0.5", "details": "protein: extract; tags: endogenous fD, about 9.6 nM in 10% serum; hairpin", "procedure": "as §1, §2"}, "[15]": {"molecular_target": "T1, complement Factor D (fD) in …", "test": "inhibition; hemolysis, sd 0.8", "details": "protein: extract; tags: endogenous fD, about 9.6 nM in 10% serum; hairpin", "procedure": "as §1, §2"}, "[16]": {"molecular_target": "T1, complement Factor D (fD) in …", "test": "inhibition; hemolysis, sd 0.9", "details": "protein: extract; tags: endogenous fD, about 9.6 nM in 10% serum; hairpin", "procedure": "as §1, §2"}},
  "data": [
    {"binder": "CGACUUGCCAGUAUUGGCGAUGGCUGGAAGUUUGUCG (ssRNA, 2'-F G except 2'-OMe G in stem 1; 2'-OMe A,C,U; 5' C6NH2; 3' idT)", "note": "[Aptamer 102]", "values": [
      {"measurement": "IC50", "setting": "[1]", "value": 6.3, "unit": "nM"},
      {"measurement": "Kd", "setting": "complement Factor D (fD) [2]", "value": 2.5, "unit": "nM"},
      {"measurement": "Kd", "setting": "complement Factor D (fD) [3]", "value": 1.6, "unit": "nM"}
    ]},
    {"binder": "CGACUUGCCAGUAUUGGCGAUGGCUGGAAGUUUGUCG (ssRNA, 2'-F G; 2'-OMe A,C,U; 5' C6NH2; 3' idT)", "note": "[Aptamer 53]", "values": [
      {"measurement": "IC50", "setting": "[4]", "value": "< 10", "unit": "nM"}
    ]},
    {"binder": "CGACUUGCCAGUAUUGGCGAUGGCUGGAAGUUUGUCG (ssRNA, as Aptamer 102; 5' 40 kDa branched PEG via C6NH2; 3' idT)", "note": "[P07 (PEGylated Aptamer 102)]", "values": [
      {"measurement": "IC50", "setting": "[5]", "value": 4.4, "unit": "nM"}
    ]},
    {"binder": "CCGCCUUGCCAGUAUUGGCUUAGGCUGGAAGUUUGGCGG (ssRNA, 2'-F G except 2'-OMe G at 3,35,36,38,39; 2'-OMe A,C,U; 5' C6NH2; 3' idT)", "note": "[Aptamer 74]", "values": [
      {"measurement": "IC50", "setting": "[6]", "value": 7, "unit": "nM"},
      {"measurement": "Kd", "setting": "complement Factor D (fD) [7]", "value": 3.7, "unit": "nM"},
      {"measurement": "Kd", "setting": "complement Factor D (fD) [8]", "value": 2.5, "unit": "nM"},
      {"measurement": "Kd", "setting": "complement Factor D (fD) [9]", "value": 2.7, "unit": "nM"}
    ]},
    {"binder": "CCGCCUUGCCAGUAUUGGCUUAGGCUGGAAGUUUGGCGG (ssRNA, 2'-F G; 2'-OMe A,C,U; 5' C6NH2; 3' idT)", "note": "[Aptamer 15]", "values": [
      {"measurement": "IC50", "setting": "[10]", "value": 9.4, "unit": "nM"},
      {"measurement": "Kd", "setting": "complement Factor D (fD) [11]", "value": 8.37, "unit": "nM"}
    ]},
    {"binder": "CCGCCUUGCCAGUAUUGGCUUAGGCUGGAAGUUUGGCGG (ssRNA, 2'-F G; 2'-OMe A,C,U; 5' 40 kDa branched PEG via C6NH2; 3' idT)", "note": "[P01 (PEGylated Aptamer 15)]", "values": [
      {"measurement": "IC50", "setting": "[12]", "value": 6.1, "unit": "nM"}
    ]},
    {"binder": "CCGACUUGCCAGUAUUGGCUUAGGCUGGAAGUUUGUCGG (ssRNA, 2'-F G except 2'-OMe G in stem 1; 2'-OMe A,C,U; 5' C6NH2; 3' idT)", "note": "[Aptamer 106]", "values": [
      {"measurement": "Kd", "setting": "complement Factor D (fD) [2]", "value": 1.7, "unit": "nM"},
      {"measurement": "IC50", "setting": "[13]", "value": 5.2, "unit": "nM"},
      {"measurement": "Kd", "setting": "complement Factor D (fD) [3]", "value": 0.66, "unit": "nM"}
    ]},
    {"binder": "CCGACUUGCCAGUAUUGGCUUAGGCUGGAAGUUUGUCGG (ssRNA, as Aptamer 106; 5' 40 kDa branched PEG via C6NH2; 3' idT)", "note": "[P08 (PEGylated Aptamer 106)]", "values": [
      {"measurement": "IC50", "setting": "[14]", "value": 4.1, "unit": "nM"}
    ]},
    {"binder": "CCGACUUGCCAGUAUUGGCGAUGGCUGGAAGUUUGUCGG (ssRNA, 2'-F G except 2'-OMe G in stem 1; 2'-OMe A,C,U; 5' C6NH2; 3' idT)", "note": "[Aptamer 76]", "values": [
      {"measurement": "IC50", "setting": "[15]", "value": 4.2, "unit": "nM"},
      {"measurement": "Kd", "setting": "complement Factor D (fD) [2]", "value": 1.6, "unit": "nM"},
      {"measurement": "Kd", "setting": "complement Factor D (fD) [3]", "value": 0.8, "unit": "nM"}
    ]},
    {"binder": "CCGACUUGCCAGUAUUGGCGAUGGCUGGAAGUUUGUCGG (ssRNA, as Aptamer 76; 5' 40 kDa branched PEG via C6NH2; 3' idT)", "note": "[P06 (PEGylated Aptamer 76)]", "values": [
      {"measurement": "IC50", "setting": "[16]", "value": 4.1, "unit": "nM"}
    ]}
  ]
}
